Measured values as given in the supplement of paper PMC9112550, “Optimization of the antimicrobial peptide Bac7 by deep mutational scanning” (BMC Biology, 2022).

System: Escherichia coli TOP10
Test: shrunken log2 fold change of peptide-encoding DNA abundance (4.5 h post-induction vs induction); higher = less antimicrobial activity (less host growth inhibition)
Conditions: time post-induction: 4.5 h; library: site-saturation at positions 5, 18, 19, 20
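Also: peptides expressed intracellularly from a pBAD plasmid library in pooled LB shake-flask culture, induced with 0.3% L-arabinose, DNA abundance read by NGS, three biological replicates, DESeq2 with apeglm shrinkage.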

## RRIRERPPRLPRPRPRPQESPRP
  shrunken log2 fold change: -0.239

## RRIRTRPPRLPRPRPRPWCYPRP
  shrunken log2 fold change: -0.291

## RRIRKRPPRLPRPRPRPHVSPRP
  shrunken log2 fold change: -0.00259

## RRIRQRPPRLPRPRPRPYPEPRP
  shrunken log2 fold change: -0.0761

## RRIRFRPPRLPRPRPRPSVFPRP
  shrunken log2 fold change: -0.165

## RRIRARPPRLPRPRPRPWPQPRP
  shrunken log2 fold change: 0.403

## RRIRSRPPRLPRPRPRPNEGPRP
  shrunken log2 fold change: -0.0691

## RRIRPRPPRLPRPRPRPPAMPRP
  shrunken log2 fold change: 0.447

## RRIRDRPPRLPRPRPRPREEPRP
  shrunken log2 fold change: 1.27

## RRIRYRPPRLPRPRPRPIITPRP
  shrunken log2 fold change: -0.667

## RRIRHRPPRLPRPRPRPHQLPRP
  shrunken log2 fold change: -0.196

## RRIRARPPRLPRPRPRPFAGPRP
  shrunken log2 fold change: 0.0859

## RRIRLRPPRLPRPRPRPLHDPRP
  shrunken log2 fold change: -0.149

## RRIRCRPPRLPRPRPRPYSRPRP
  shrunken log2 fold change: -0.0442

## RRIRGRPPRLPRPRPRPWSNPRP
  shrunken log2 fold change: -0.116

## RRIRWRPPRLPRPRPRPPVIPRP
  shrunken log2 fold change: -0.189

## RRIRCRPPRLPRPRPRPFQIPRP
  shrunken log2 fold change: 0.00581

## RRIRCRPPRLPRPRPRPIQHPRP
  shrunken log2 fold change: -1.21

## RRIRKRPPRLPRPRPRPLNPPRP
  shrunken log2 fold change: 0.129

## RRIRPRPPRLPRPRPRPQMRPRP
  shrunken log2 fold change: 0.806

## RRIRTRPPRLPRPRPRPTFRPRP
  shrunken log2 fold change: -0.0105

## RRIRYRPPRLPRPRPRPMVNPRP
  shrunken log2 fold change: -0.0376

## RRIRKRPPRLPRPRPRPAIMPRP
  shrunken log2 fold change: 0.418

## RRIRQRPPRLPRPRPRPTSDPRP
  shrunken log2 fold change: -0.358

## RRIRGRPPRLPRPRPRPHLTPRP
  shrunken log2 fold change: 0.357

## RRIRHRPPRLPRPRPRPQDMPRP
  shrunken log2 fold change: -0.129

## RRIRLRPPRLPRPRPRPTDFPRP
  shrunken log2 fold change: -0.0399

## RRIRHRPPRLPRPRPRPFDVPRP
  shrunken log2 fold change: -0.168

## RRIRERPPRLPRPRPRPGMTPRP
  shrunken log2 fold change: -0.324

## RRIRVRPPRLPRPRPRPLIRPRP
  shrunken log2 fold change: -0.352

## RRIRKRPPRLPRPRPRPSQRPRP
  shrunken log2 fold change: 0.231

## RRIRIRPPRLPRPRPRPSVKPRP
  shrunken log2 fold change: -0.037

## RRIRRRPPRLPRPRPRPEEIPRP
  shrunken log2 fold change: -0.0243

## RRIRPRPPRLPRPRPRPYFWPRP
  shrunken log2 fold change: -0.137

## RRIRVRPPRLPRPRPRPYCTPRP
  shrunken log2 fold change: -0.284

## RRIRGRPPRLPRPRPRPGEVPRP
  shrunken log2 fold change: 1.2

## RRIRERPPRLPRPRPRPHQRPRP
  shrunken log2 fold change: 0.0138

## RRIRDRPPRLPRPRPRPGDSPRP
  shrunken log2 fold change: 0.13

## RRIRWRPPRLPRPRPRPSRGPRP
  shrunken log2 fold change: 0.532

## RRIRNRPPRLPRPRPRPFWSPRP
  shrunken log2 fold change: -0.146

## RRIRVRPPRLPRPRPRPPVFPRP
  shrunken log2 fold change: 0.00719

## RRIRGRPPRLPRPRPRPMPEPRP
  shrunken log2 fold change: 0.226

## RRIRIRPPRLPRPRPRPSRVPRP
  shrunken log2 fold change: -0.0608

## RRIRTRPPRLPRPRPRPREQPRP
  shrunken log2 fold change: 0.198

## RRIRRRPPRLPRPRPRPFFDPRP
  shrunken log2 fold change: 0.296

## RRIRRRPPRLPRPRPRPLLMPRP
  shrunken log2 fold change: 0.395

## RRIRWRPPRLPRPRPRPPQKPRP
  shrunken log2 fold change: 0.413

## RRIRVRPPRLPRPRPRPSHLPRP
  shrunken log2 fold change: -0.443

## RRIRYRPPRLPRPRPRPVKMPRP
  shrunken log2 fold change: -0.392

## RRIRVRPPRLPRPRPRPWCLPRP
  shrunken log2 fold change: -0.198

## RRIRLRPPRLPRPRPRPMKFPRP
  shrunken log2 fold change: 0.0807

## RRIRQRPPRLPRPRPRPNERPRP
  shrunken log2 fold change: -0.0297

## RRIRYRPPRLPRPRPRPCHRPRP
  shrunken log2 fold change: -0.169

## RRIRARPPRLPRPRPRPLCAPRP
  shrunken log2 fold change: 0.704

## RRIRFRPPRLPRPRPRPMEEPRP
  shrunken log2 fold change: 0.279

## RRIRYRPPRLPRPRPRPQWNPRP
  shrunken log2 fold change: -0.108

## RRIRFRPPRLPRPRPRPQCWPRP
  shrunken log2 fold change: 0.0388

## RRIRARPPRLPRPRPRPWWDPRP
  shrunken log2 fold change: -0.101

## RRIRERPPRLPRPRPRPREEPRP
  shrunken log2 fold change: -0.00173

## RRIRERPPRLPRPRPRPIIPPRP
  shrunken log2 fold change: -0.835

## RRIRVRPPRLPRPRPRPNGWPRP
  shrunken log2 fold change: 0.0568

## RRIRVRPPRLPRPRPRPGKTPRP
  shrunken log2 fold change: 0.0999

## RRIRKRPPRLPRPRPRPCAGPRP
  shrunken log2 fold change: 0.257

## RRIRSRPPRLPRPRPRPIWYPRP
  shrunken log2 fold change: -0.373

## RRIRERPPRLPRPRPRPDMSPRP
  shrunken log2 fold change: -0.064

## RRIRYRPPRLPRPRPRPACDPRP
  shrunken log2 fold change: -0.00452

## RRIRIRPPRLPRPRPRPGTSPRP
  shrunken log2 fold change: -0.0281

## RRIRDRPPRLPRPRPRPATRPRP
  shrunken log2 fold change: 0.701

## RRIRTRPPRLPRPRPRPPVDPRP
  shrunken log2 fold change: 0.244

## RRIRQRPPRLPRPRPRPTQHPRP
  shrunken log2 fold change: 0.195

## RRIRWRPPRLPRPRPRPQVAPRP
  shrunken log2 fold change: 0.472

## RRIRNRPPRLPRPRPRPKDLPRP
  shrunken log2 fold change: -0.0125

## RRIRSRPPRLPRPRPRPMFHPRP
  shrunken log2 fold change: -0.438

## RRIRPRPPRLPRPRPRPKPNPRP
  shrunken log2 fold change: 0.356

## RRIRLRPPRLPRPRPRPKDWPRP
  shrunken log2 fold change: 0.467

## RRIRRRPPRLPRPRPRPNGTPRP
  shrunken log2 fold change: 0.219

## RRIRMRPPRLPRPRPRPMLCPRP
  shrunken log2 fold change: 0.049

## RRIRMRPPRLPRPRPRPNNRPRP
  shrunken log2 fold change: -0.0376

## RRIRGRPPRLPRPRPRPLPDPRP
  shrunken log2 fold change: 0.926

## RRIRYRPPRLPRPRPRPVKQPRP
  shrunken log2 fold change: -0.00131

## RRIRQRPPRLPRPRPRPWIWPRP
  shrunken log2 fold change: 0.231

## RRIRWRPPRLPRPRPRPRKFPRP
  shrunken log2 fold change: 0.295

## RRIRFRPPRLPRPRPRPSGKPRP
  shrunken log2 fold change: -0.0093

## RRIRTRPPRLPRPRPRPRHWPRP
  shrunken log2 fold change: 0.0182

## RRIRPRPPRLPRPRPRPWSWPRP
  shrunken log2 fold change: 0.217

## RRIRIRPPRLPRPRPRPTPTPRP
  shrunken log2 fold change: 0.387

## RRIRVRPPRLPRPRPRPLQDPRP
  shrunken log2 fold change: -0.104

## RRIRCRPPRLPRPRPRPYSFPRP
  shrunken log2 fold change: -0.414

## RRIRDRPPRLPRPRPRPYRNPRP
  shrunken log2 fold change: -0.00595

## RRIRRRPPRLPRPRPRPDEQPRP
  shrunken log2 fold change: 0.237

## RRIRNRPPRLPRPRPRPQSSPRP
  shrunken log2 fold change: -0.0447

## RRIRKRPPRLPRPRPRPSEDPRP
  shrunken log2 fold change: -0.0464

## RRIRSRPPRLPRPRPRPFVKPRP
  shrunken log2 fold change: -0.222

## RRIRPRPPRLPRPRPRPKAHPRP
  shrunken log2 fold change: 0.0759

## RRIRRRPPRLPRPRPRPTMVPRP
  shrunken log2 fold change: 0.283

## RRIRTRPPRLPRPRPRPTINPRP
  shrunken log2 fold change: -0.565

## RRIRFRPPRLPRPRPRPIAKPRP
  shrunken log2 fold change: -0.181

## RRIRPRPPRLPRPRPRPELEPRP
  shrunken log2 fold change: 0.219

## RRIRWRPPRLPRPRPRPHNPPRP
  shrunken log2 fold change: -0.115

## RRIRDRPPRLPRPRPRPYDKPRP
  shrunken log2 fold change: -0.149

## RRIRPRPPRLPRPRPRPEYGPRP
  shrunken log2 fold change: -0.167

## RRIRCRPPRLPRPRPRPGSYPRP
  shrunken log2 fold change: -0.525

## RRIRRRPPRLPRPRPRPGRRPRP
  shrunken log2 fold change: 0.456

## RRIRNRPPRLPRPRPRPVKSPRP
  shrunken log2 fold change: 0.00699

## RRIRQRPPRLPRPRPRPRKLPRP
  shrunken log2 fold change: 0.0501

## RRIRDRPPRLPRPRPRPMGVPRP
  shrunken log2 fold change: 0.0778

## RRIRLRPPRLPRPRPRPQVDPRP
  shrunken log2 fold change: -0.136

## RRIRNRPPRLPRPRPRPYMVPRP
  shrunken log2 fold change: -0.107

## RRIRSRPPRLPRPRPRPGVFPRP
  shrunken log2 fold change: 0.146

## RRIRYRPPRLPRPRPRPMDHPRP
  shrunken log2 fold change: -0.237

## RRIRGRPPRLPRPRPRPYWKPRP
  shrunken log2 fold change: -0.0176

## RRIRRRPPRLPRPRPRPFKGPRP
  shrunken log2 fold change: 0.0185

## RRIRNRPPRLPRPRPRPRLKPRP
  shrunken log2 fold change: -0.00493

## RRIRTRPPRLPRPRPRPLRVPRP
  shrunken log2 fold change: 0.767

## RRIRVRPPRLPRPRPRPCWRPRP
  shrunken log2 fold change: 0.0437

## RRIRRRPPRLPRPRPRPWCGPRP
  shrunken log2 fold change: 0.282

## RRIRLRPPRLPRPRPRPNETPRP
  shrunken log2 fold change: -0.0172

## RRIRCRPPRLPRPRPRPHKEPRP
  shrunken log2 fold change: -0.334

## RRIRHRPPRLPRPRPRPHEFPRP
  shrunken log2 fold change: 0.0248

## RRIRERPPRLPRPRPRPDDQPRP
  shrunken log2 fold change: -0.252

## RRIRMRPPRLPRPRPRPPAEPRP
  shrunken log2 fold change: 3.68

## RRIRQRPPRLPRPRPRPGLFPRP
  shrunken log2 fold change: -0.176

## RRIRARPPRLPRPRPRPKRPPRP
  shrunken log2 fold change: 1.03

## RRIRQRPPRLPRPRPRPTKYPRP
  shrunken log2 fold change: -0.257

## RRIRRRPPRLPRPRPRPYQRPRP
  shrunken log2 fold change: -0.0429

## RRIRCRPPRLPRPRPRPGMTPRP
  shrunken log2 fold change: 0.0507

## RRIRNRPPRLPRPRPRPTSIPRP
  shrunken log2 fold change: -0.531

## RRIRCRPPRLPRPRPRPQWPPRP
  shrunken log2 fold change: 0.0205

## RRIRDRPPRLPRPRPRPAFNPRP
  shrunken log2 fold change: -0.223

## RRIRSRPPRLPRPRPRPQFQPRP
  shrunken log2 fold change: -0.124

## RRIRERPPRLPRPRPRPYPPPRP
  shrunken log2 fold change: -0.942

## RRIRVRPPRLPRPRPRPKPDPRP
  shrunken log2 fold change: 0.206

## RRIRHRPPRLPRPRPRPLDPPRP
  shrunken log2 fold change: -0.331

## RRIRKRPPRLPRPRPRPWHGPRP
  shrunken log2 fold change: -0.165

## RRIRPRPPRLPRPRPRPKAFPRP
  shrunken log2 fold change: -0.198

## RRIRWRPPRLPRPRPRPVTRPRP
  shrunken log2 fold change: -0.0273

## RRIRKRPPRLPRPRPRPVEDPRP
  shrunken log2 fold change: -0.000777

## RRIRWRPPRLPRPRPRPVMYPRP
  shrunken log2 fold change: -0.0288

## RRIRQRPPRLPRPRPRPMELPRP
  shrunken log2 fold change: -0.109

## RRIRARPPRLPRPRPRPTYHPRP
  shrunken log2 fold change: -0.225

## RRIRARPPRLPRPRPRPFYRPRP
  shrunken log2 fold change: -0.178

## RRIRMRPPRLPRPRPRPYSDPRP
  shrunken log2 fold change: -0.329

## RRIRTRPPRLPRPRPRPKVSPRP
  shrunken log2 fold change: -0.0491

## RRIRFRPPRLPRPRPRPATLPRP
  shrunken log2 fold change: -0.159

## RRIRLRPPRLPRPRPRPAPHPRP
  shrunken log2 fold change: 0.514

## RRIRNRPPRLPRPRPRPLLSPRP
  shrunken log2 fold change: 0.1

## RRIRLRPPRLPRPRPRPPHKPRP
  shrunken log2 fold change: -0.113

## RRIRRRPPRLPRPRPRPCRYPRP
  shrunken log2 fold change: -0.0616

## RRIRPRPPRLPRPRPRPIDRPRP
  shrunken log2 fold change: -0.00145

## RRIRRRPPRLPRPRPRPYSCPRP
  shrunken log2 fold change: -0.0958
